One data set addresses T1, matriptase (Homo sapiens, UniProt Q9Y5Y6).
T1 construct: purchased R&D Systems
T1 sequence (Q9Y5Y6 1-855): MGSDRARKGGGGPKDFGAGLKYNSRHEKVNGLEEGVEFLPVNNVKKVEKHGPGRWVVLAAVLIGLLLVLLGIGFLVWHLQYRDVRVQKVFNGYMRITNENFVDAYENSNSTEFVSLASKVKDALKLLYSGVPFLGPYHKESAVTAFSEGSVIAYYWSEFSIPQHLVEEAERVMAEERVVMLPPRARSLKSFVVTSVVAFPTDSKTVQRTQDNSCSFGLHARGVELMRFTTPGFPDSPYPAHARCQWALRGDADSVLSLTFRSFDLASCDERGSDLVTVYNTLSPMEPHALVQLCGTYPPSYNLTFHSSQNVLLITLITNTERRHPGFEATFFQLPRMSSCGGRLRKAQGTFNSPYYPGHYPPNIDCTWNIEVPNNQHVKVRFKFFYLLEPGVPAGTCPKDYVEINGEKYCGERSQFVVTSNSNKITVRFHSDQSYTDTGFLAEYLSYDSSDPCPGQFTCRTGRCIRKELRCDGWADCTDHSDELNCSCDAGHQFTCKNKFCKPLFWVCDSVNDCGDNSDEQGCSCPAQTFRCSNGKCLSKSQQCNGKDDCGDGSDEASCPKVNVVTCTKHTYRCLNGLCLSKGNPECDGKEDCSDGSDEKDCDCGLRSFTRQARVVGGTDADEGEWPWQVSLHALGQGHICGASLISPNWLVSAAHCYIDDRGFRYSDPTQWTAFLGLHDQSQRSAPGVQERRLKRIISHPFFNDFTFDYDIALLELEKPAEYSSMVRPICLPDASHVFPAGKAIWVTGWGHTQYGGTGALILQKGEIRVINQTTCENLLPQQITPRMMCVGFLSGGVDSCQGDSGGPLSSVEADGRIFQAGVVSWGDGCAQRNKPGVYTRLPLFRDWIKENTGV
The format is biochemical. As to conditions: 45 min.

For a further data set, the target named is T2, cathepsin L (Homo sapiens, UniProt P07711).
T2 construct: purchased R&D Systems
T2 sequence (P07711 114-333): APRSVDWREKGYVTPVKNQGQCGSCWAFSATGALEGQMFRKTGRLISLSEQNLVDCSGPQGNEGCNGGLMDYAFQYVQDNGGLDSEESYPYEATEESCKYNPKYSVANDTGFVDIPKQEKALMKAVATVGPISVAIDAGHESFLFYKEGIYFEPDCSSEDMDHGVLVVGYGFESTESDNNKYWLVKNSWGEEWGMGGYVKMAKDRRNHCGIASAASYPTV
The format is biochemical. As to conditions: 45 min.

The next data set concerns the target T3, TMPRSS2 (Homo sapiens, UniProt O15393).
T3 construct: purchased creative biomart
The format is biochemical. As to conditions: 45 min.

In data set [1] the test system is MERS-CoV pseudovirus entry in Caco2 human colorectal adenocarcinoma cells. The format is cell-based.
In data set [2] the test system is IFNγ-mediated activation of human microglial HMC3-MHCII^Luc cells. Briefly: IFNγ-mediated microglial activation, MHCII-driven luciferase. The format is cell-based. As to conditions: MHCII-driven luciferase normalized to cell viability, FIG. 19.
Another data set concerns the target T4, PC1 (Homo sapiens, UniProt P29120).
T4 construct: purchased R&D Systems
T4 sequence (P29120 111-753): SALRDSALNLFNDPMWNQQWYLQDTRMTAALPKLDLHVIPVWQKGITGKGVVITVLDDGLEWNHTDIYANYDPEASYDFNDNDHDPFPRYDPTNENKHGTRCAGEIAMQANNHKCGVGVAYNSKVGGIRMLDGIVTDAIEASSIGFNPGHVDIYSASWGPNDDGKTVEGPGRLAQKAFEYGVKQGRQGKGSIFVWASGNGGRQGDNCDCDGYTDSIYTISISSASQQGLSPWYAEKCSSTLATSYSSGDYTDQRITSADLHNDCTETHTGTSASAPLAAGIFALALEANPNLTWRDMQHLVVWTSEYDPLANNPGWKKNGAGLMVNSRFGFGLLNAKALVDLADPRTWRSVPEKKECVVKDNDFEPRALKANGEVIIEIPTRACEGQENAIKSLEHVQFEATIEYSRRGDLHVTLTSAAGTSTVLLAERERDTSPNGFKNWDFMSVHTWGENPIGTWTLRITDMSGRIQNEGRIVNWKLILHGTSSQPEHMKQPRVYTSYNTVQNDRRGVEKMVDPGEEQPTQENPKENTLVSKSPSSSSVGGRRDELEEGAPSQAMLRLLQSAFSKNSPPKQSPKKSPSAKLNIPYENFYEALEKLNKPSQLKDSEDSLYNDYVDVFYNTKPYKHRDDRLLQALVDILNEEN
The format is biochemical. As to conditions: 45 min.

Data set [3] addresses T5, elastase (ELA1) from pig pancreas (Sus scrofa, UniProt P00772).
T5 construct: elastase (ELA1) from pig pancreas 0.25U/mL; purchased molecular probes (Sigma-Aldrich) E-12056; host or cells: pig pancreas
The format is biochemical.

Data set [4] relates to ACE2/SARS-CoV-2 spike mediated cell fusion of HeLa cells. The format is cell-based, human. As to conditions: 24 h.
Another data set addresses T6, cathepsin B (Homo sapiens, UniProt P07858).
T6 construct: purchased R&D Systems
The format is biochemical. As to conditions: 45 min.

The next data set has as its system trypsin. The format is biochemical. As to conditions: 45 min.
Data set [5] deals with T7, furin (Homo sapiens, UniProt P09958).
T7 construct: purchased NEB
T7 sequence (P09958 108-794): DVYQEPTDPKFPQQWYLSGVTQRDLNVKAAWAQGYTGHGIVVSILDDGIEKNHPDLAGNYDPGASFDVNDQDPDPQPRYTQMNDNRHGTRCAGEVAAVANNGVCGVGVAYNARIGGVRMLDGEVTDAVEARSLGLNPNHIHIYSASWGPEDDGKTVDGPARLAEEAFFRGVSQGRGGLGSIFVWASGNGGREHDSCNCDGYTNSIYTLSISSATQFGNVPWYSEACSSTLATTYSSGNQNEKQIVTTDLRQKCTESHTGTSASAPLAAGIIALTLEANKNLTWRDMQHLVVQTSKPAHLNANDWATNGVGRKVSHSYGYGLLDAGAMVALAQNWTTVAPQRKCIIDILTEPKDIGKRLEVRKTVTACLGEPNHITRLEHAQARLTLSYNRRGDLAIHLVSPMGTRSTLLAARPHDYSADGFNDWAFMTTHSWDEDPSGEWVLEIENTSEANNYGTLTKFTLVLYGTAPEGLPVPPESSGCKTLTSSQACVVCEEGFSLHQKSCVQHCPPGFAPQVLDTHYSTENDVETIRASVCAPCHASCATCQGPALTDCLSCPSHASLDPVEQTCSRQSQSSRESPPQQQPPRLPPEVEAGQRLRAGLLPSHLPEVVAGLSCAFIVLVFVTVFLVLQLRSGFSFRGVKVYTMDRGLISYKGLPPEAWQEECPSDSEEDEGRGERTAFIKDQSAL
The format is biochemical. As to conditions: 45 min.

Data set [6] concerns the target T7, furin. As to conditions: Jean et al. 1998; cited from earlier work.
In data set [7] the test system is SARS-CoV-2 spike pseudotyped lentivirus entry in HeLa cells expressing ACE2 only. The format is cell-based. As to conditions: 10 µM.

T5 sequence (P00772 27-266): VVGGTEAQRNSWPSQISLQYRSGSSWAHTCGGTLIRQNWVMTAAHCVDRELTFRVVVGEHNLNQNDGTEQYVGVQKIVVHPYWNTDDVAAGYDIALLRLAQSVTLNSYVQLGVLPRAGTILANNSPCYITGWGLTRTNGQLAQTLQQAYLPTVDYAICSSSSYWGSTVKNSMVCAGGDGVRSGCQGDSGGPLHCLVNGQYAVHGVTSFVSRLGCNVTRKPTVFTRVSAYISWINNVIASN
T3 sequence (O15393 whole entry): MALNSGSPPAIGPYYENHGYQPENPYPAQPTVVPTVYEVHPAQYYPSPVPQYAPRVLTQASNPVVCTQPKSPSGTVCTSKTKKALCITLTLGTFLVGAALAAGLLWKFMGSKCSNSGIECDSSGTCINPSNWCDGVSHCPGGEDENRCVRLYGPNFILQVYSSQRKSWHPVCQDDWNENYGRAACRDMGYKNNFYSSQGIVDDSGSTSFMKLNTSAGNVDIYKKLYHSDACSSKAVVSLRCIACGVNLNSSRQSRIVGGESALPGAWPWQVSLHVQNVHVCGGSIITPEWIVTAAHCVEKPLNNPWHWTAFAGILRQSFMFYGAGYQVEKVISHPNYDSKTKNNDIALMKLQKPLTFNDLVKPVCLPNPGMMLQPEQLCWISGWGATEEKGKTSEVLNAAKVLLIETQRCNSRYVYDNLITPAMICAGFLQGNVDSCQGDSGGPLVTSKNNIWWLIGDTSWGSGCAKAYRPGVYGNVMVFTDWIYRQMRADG

As to rhAAT, in the data set with matriptase, the matriptase protease activity result is given as “inhibits matriptase protease activity”. Besides, the “cathepsin L protease activity” value with cathepsin L is listed as “inhibits cathepsin L protease activity”. For the same substance, the TMPRSS2 protease activity result in the data set with TMPRSS2 is “inhibits TMPRSS2 protease activity”. Further, in data set [1], the MERS-CoV pseudovirus entry entry is “inhibits viral entry of several viruses”. Also, the “IFNγ-mediated microglial activation (inflammation)” value in [2] was “reduces inflammation”; in data set [2] (listed as recombinant AAT), “Effect is observed”. Also, the PC1 protease activity entry in the data set with PC1 is listed as “inhibits PC1 protease activity”. Besides, the elastase protease activity result in [3] is recorded as “inhibits elastase protease activity”. The “inhibitory effect on SARS-CoV-2 spike mediated cell fusion” value in data set [4] is listed as “more effectively than plasma derived AAT”. The “cathepsin B protease activity” value with cathepsin B was “inhibits cathepsin B protease activity”. In addition, the trypsin protease activity entry with trypsin was “inhibits trypsin protease activity”. Moreover, the furin protease activity entry in the data set with furin [5] is “inhibits furin protease activity”.
As for Alpha1-antitrypsin Portland, the activity on furin result with furin [6] was “strong and selective activity”.
As for plasma derived AAT, in [7], the “inhibitory effect on SARS-CoV-2 pseudoviral cell-entry” value is given as “up to 25%”. For the same substance, in data set [2], the “IFNγ-mediated microglial activation (inflammation)” value is on record as “Effect is observed”.

These data come from patent US20230302104A1, “TREATMENT AND/OR PREVENTION OF A DISEASE OR A SYNDROME RELATED TO A VIRUS INFECTION” (priority 2020, published 2023).
